Laboratory results: US20060127407A1

Molecular target: alphaVbeta3 integrin (human) (UniProt P06756)
Assay: ELISA, purified antibody on alphaVbeta3

Chain of alphaVbeta3 integrin (human) (P06756 31-1048, chain 1 of 2): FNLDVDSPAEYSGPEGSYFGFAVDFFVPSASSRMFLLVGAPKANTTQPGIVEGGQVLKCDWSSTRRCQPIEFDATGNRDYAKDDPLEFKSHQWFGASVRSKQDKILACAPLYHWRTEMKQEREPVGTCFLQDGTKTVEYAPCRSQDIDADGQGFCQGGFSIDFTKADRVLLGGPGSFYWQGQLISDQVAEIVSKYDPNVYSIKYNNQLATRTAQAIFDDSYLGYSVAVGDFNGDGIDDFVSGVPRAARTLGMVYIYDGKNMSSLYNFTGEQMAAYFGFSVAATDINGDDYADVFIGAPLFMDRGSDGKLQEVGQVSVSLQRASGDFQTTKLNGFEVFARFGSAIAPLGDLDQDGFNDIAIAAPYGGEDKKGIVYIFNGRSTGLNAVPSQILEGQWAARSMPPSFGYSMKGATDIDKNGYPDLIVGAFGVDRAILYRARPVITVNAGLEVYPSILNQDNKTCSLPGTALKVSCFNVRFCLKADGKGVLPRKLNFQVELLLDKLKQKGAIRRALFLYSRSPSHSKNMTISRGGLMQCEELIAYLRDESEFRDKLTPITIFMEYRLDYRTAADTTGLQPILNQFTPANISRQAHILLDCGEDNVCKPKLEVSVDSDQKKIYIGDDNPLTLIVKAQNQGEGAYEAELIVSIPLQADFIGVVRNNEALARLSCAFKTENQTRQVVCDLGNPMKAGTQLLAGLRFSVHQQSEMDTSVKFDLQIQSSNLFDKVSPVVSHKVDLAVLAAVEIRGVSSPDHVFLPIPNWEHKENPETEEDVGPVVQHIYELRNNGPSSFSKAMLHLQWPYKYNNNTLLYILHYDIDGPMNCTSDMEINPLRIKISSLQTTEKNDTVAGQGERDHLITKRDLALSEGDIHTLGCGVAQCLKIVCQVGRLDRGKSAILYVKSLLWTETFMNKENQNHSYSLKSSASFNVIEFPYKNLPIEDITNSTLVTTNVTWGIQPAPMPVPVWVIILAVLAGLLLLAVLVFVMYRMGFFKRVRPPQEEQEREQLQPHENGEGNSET
Chain of alphaVbeta3 integrin (human) (P05106 27-788, chain 2 of 2, further chain): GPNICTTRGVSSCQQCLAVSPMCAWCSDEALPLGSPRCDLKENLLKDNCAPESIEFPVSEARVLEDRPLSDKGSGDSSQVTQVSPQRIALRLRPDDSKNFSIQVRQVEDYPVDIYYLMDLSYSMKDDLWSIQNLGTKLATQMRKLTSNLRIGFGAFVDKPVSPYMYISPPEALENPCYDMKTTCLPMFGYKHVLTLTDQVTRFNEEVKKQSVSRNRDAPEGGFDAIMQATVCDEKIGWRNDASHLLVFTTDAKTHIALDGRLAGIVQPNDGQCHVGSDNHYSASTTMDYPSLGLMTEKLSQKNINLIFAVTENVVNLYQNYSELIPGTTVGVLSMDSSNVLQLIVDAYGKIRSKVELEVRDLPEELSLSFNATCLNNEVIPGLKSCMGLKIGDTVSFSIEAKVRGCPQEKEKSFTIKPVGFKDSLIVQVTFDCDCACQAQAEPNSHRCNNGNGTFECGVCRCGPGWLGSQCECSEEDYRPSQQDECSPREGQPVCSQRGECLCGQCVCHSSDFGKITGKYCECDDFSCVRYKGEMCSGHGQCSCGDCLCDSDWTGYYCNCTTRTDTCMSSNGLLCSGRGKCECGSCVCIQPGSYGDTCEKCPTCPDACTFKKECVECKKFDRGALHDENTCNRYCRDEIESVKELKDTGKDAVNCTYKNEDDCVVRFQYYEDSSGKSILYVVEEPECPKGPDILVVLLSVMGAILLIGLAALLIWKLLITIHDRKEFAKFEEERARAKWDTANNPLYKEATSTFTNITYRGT

B1: c7E3 IgG (antibody, INN chains, looked up, V domains shown)
VH: EVQLQQSGTVLARPGASVKMSCEASGYTFTNYWMHWVKQRPGQGLEWIGAIYPGNSDTSYIQKFKGKAKLTAVTSTTSVYMELSSLTNEDSAVYYCTLYDGYYVFAYWGQGTLVTVSA
VL: EIVLTQSPVTLSVTPGDSVSLSCRASRDISNNLHWFQQTSHESPRLLIKYASQSMSGIPSRFSGSGSGTDFTLSINSVETEDFGMYFCQQTNSWPYTFGGGTKLEIK
modifications: IgG
- EC50: 0.07 µg/mL
